Here are results for 1 protein from publication PMC10282599, “Al-induced CsUGT84J2 enhances flavonol and auxin accumulation to promote root growth in tea plants” (Horticulture Research, 2023).

Holding throughout (experiment): HPLC of glucoside product
What all share (format): biochemical, Camellia sinensis

Substrate in data set [1]: O=C(O)/C=C/c1ccc(O)cc1
Conditions: UDP-glucose as sugar donor; optimum pH 6.5, 40 °C; pH 6.5; 40.0 °C.

Substrate in data set [2]: O=C(O)Cc1c[nH]c2ccccc12
Conditions: UDP-glucose as sugar donor; optimum pH 6.5, 30 °C; pH 6.5; 30.0 °C.

Substrate in data set [3]: O=c1c(O)c(-c2ccc(O)cc2)oc2cc(O)cc(O)c12
The settings on record: UDP-glucose as sugar donor; optimum pH 9.5, 40 °C; pH 9.5; 40.0 °C.

B1: rCsUGT84J2 (TEA000239) (Camellia sinensis) (protein)
chain: MAAMEKKEEIHVLMVAFSSQGHINPMLRLAKRLHSKGLHVTLATTEIARHRMLTSSSATTTAVAANSIDGISLAFFSDGLSLDYDRKTNLDHYMDSLGRAGPANLSSIILHHHSHGGRKFSCIVTNPFIPWAADVAAEHGIPCALLWIQPCSLYSIYYRFYNHLNQFPSSANPNMSVELPGLPLLNTEDLPSFVLPSNPFGSFPKLFCGLFQNMQKMKWVLANSFHELESQAIDSMFDIHPVLPIGPLVPPSILGEDQAVDAGVEMWKSEDNCIEWLDQQQPNSVIYVSFGSVVILSPLQMESIATGLKNCNRPFLWVVKKSDYTAKEGEGQLPLGFLEETKGRGLVVQWSPQIKVLMNPAVGCFLTHCGWNSMLETIAAGVPVIAYPQWTDQPTNAKLMAEVLRVGVRLRPNQDGVVTNEEVERRIEDVMCGPEAEEFREKAAELKVAARVAVADGGSSDRNIQLFVDEIIGDSST
As for B1, the values for the Km in data set [1], in data set [2] and in data set [3] were 0.243 µM, 0.522 µM and 0.127 µM, respectively.

The Km is the concentration of substrate that gives half-maximal velocity.
